According to patent US20220324953A1 (JIANGSU HENGRUI MEDICINE, published 2022):

T1: human CTGF protein (R&D, Cat No. 9190-CC) (human, UniProt P29279 27-349)
T1 construct: Bought protein; also called CTGF recombinant protein; CTGF (R&D)
T1 sequence: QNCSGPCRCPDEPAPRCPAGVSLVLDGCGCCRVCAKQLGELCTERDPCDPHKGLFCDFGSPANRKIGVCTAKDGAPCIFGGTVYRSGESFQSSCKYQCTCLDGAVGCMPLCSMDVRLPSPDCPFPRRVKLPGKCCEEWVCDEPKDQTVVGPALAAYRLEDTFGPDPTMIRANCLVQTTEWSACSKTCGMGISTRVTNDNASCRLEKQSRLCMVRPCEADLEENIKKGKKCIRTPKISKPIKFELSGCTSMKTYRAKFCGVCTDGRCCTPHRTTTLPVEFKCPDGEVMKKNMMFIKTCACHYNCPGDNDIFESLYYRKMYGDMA


What was measured:
[1] = target: T2, Cynomolgus CTGF-Fc (fusion protein of cynomolgus CTGF coding region with Fc) (cynomolgus); assay: ELISA, cyno-CTGF-Fc captured by anti-mFc
T2 construct: also called cyno-CTGF-mFc protein; cyno-CTGF protein with Fc tag
T2 sequence (chain, as listed by the source limits assumed): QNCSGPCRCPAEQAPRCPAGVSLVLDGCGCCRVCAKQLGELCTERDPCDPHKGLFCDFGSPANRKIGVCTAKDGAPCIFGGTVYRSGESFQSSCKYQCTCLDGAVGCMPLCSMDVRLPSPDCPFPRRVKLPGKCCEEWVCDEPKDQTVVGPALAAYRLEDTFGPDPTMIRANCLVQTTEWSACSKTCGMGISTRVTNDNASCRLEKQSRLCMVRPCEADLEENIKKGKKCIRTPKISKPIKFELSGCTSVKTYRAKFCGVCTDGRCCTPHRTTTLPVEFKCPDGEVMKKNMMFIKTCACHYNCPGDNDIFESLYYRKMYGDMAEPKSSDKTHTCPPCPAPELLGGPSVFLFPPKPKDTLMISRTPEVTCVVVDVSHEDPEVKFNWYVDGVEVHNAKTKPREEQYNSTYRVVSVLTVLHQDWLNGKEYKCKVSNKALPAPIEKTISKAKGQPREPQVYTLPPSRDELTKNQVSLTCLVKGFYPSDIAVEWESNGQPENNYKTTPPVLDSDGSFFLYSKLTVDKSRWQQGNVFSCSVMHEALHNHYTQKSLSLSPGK
Protocol: The binding activity of anti-monkey CTGF antibody to monkey CTGF protein was tested by ELISA assay. A 96-well microtiter plate was directly coated with anti-mFc protein, and then the cyno-CTGF protein with Fc tag was bound to the plate, and then the antibody was added. The signal strength upon the addition of the antibody was used to determine the binding activity of the antibody to cyno-CTGF. The specific experimental procedures were as follows:
The anti-mFc Protein (Sigma, Cat No. M4280) was diluted with PBS, pH 7.4 (Shanghai Yuanpei, Cat No. B320) buffer to a concentration of 2 μg/ml, which was added into the 96-well microtiter plate (Corning, Cat No. CLS3590-100EA) at 50 μl/well, and incubated in an incubator at 37° C. for 2 hours. The liquid was removed, 250 μl/well blocking solution (5% skim milk (BD skim milk, Cat No.232100) diluted in PBS) was added, and incubated in an incubator at 37° C. for 3 hours or at 4° C. overnight (16-18 hours) for blocking. After the blocking was finished, the blocking solution was removed, the plate was washed for 3 times with PBST buffer (PBS containing 0.1% Tween-20, pH 7.4), 50 μl of 1 μg/ml cyno-CTGF-mFc protein was added into each well, incubated in an incubator at 37° C. for 1 hour, and then the plate was washed for 3 times with PBST buffer (PBS containing 0.1% Tween-20, pH 7.4). 50 μl/well of various concentrations of each of the test antibodies (antibodies purified from hybridoma or humanized antibodies) diluted with sample dilution solution were added, and incubated in an incubator at 37° C. for 1 hours. After the incubation was finished, the plate was washed for 3 times with PBST, 50 μl/well of HRP-labeled goat anti-mouse secondary antibody (Jackson Immuno Research, Cat No. 115-035-003) or goat anti-human secondary antibody (Jackson Immuno Research, Cat No. 109-035-003) diluted with sample dilution solution was added, and incubated at 37° C. for 1 hour. The plate was washed for 5 times with PBST, 50 μl/well of TMB chromogenic substrate (KPL, Cat No. 52-00-03) was added, incubated at room temperature for 5-10 min, and 50 μl/well of 1 M H₂SO₄ was added to stop the reaction. The absorbance value was read by a microplate reader (Molecular Devices, VERSA max) at a wavelength of 450 nm, and the data was analyzed with GraphPad Prism 5. The binding of CTGF antibody to cyno CTGF protein was calculated as EC50 value.

[2] = target: T1, human CTGF protein (R&D, Cat No. …); assay: ELISA, plate coated with CTGF (R&D 9190-CC)
Outline: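 Plates were coated with recombinant human CTGF at 0.2 μg/ml in PBS pH 7.4 and blocked with 5% skim milk. Antibodies at serial concentrations were incubated 1 h at 37 °C, then detected with HRP anti-mouse or anti-human secondary and TMB at 450 nm. EC50 values were derived from the binding curves.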

| EC50 [1] | EC50 [2] | Binder |
| --- | --- | --- |
| 0.028 nM | 0.044 nM | Hu164-67wl (antibody, human IgG1, lambda) heavy: not shown light: ETVVTQEPSLTVSPGGTVTLTCRSSIGAVTTSNYANWVQQKPGQAFRGLIGGTSNRAPWTPARFSGSLLGGKAALTLSGVQPEDEAEYYCALWYSTHYVFGGGTKLTVLGQPKANPTVTLFPPSSEELQANKATLVCLISDFYPGAVTVAWKADGSPVKAGVETTKPSKQSNNKYAASSYLSLTPEQWKSHRSYSCQVTHEGSTVEKTVAPTEC |
| 0.029 nM | 0.044 nM | Hu164-57wl (antibody, human IgG1, lambda, V domains shown) VH: EVTLKESGPVLVKPTETLTLTCTVSGFSLSTFGVHWIRQPPGKALEWLAVIWRRGGTDYNAAFMSRLTISKDTSKSQVVLTMTNMDPVDTATYYCARDGGFDYWGQGTTVTVSS VL: ETVVTQEPSLTVSPGGTVTLTCRSSIGAVTTSNYANWVQQKPGQAFRGLIGGTSNRAPWTPARFSGSLLGGKAALTLSGVQPEDEAEYYCALWYSTHYVFGGGTKLTVLG |
| 0.062 nM | 0.046 nM | Hu147-12wk (antibody, human IgG1, kappa, V domains shown) VH: EVQLVESGGGLVQPGGSLRLSCAASGFTFSTYAMNWVRQAPGKGLEWVGRIRTKSNNYATYYADSVKDRFTISRDDSKNSLYLQMNSLKTEDTAVYYCVETGFAYWDQGTLVTVSS VL: EIVLTQSPATLSLSPGERATLSCSASSSVSYMHWFQQKPGQSPKLLIYSTSNLASGIPARFSGSGSGTDYTLTISSLEPEDFAVYYCQQRSSYPLTFGQGTKLEIKR |
| 0.077 nM | 0.073 nM | Hu147-14wk (antibody, human IgG1, kappa, V domains shown) VH: EVQLVESGGGLVQPGGSLRLSCAASGFTFSTYAMNWVRQAPGKGLEWVGRIRTKSNNYATYYADSVKDRFTISRDDSKNSLYLQMNSLKTEDTAVYYCVETGFAYWDQGTLVTVSS VL: DIQMTQSPSSLSASVGDRVTITCSASSSVSYMHWFQQKPGKSPKLLIYSTSNLASGVPSRFSGSGSGTDYTLTISSLQPEDFATYYCQQRSSYPLTFGQGTKLEIKR |
| 0.08 nM | 0.048 nM | Hu147-24wk (antibody, human IgG1, kappa, V domains shown) VH: EVQLVESGGGLVQPGGSLRLSCAASGFTFNTYAMNWVRQAPGKGLEWVARIRTKSNNYATYYADSVKDRFTISRDDSKNSLYLQMNSLKTEDTAVYYCVETGFAYWDQGTLVTVSS VL: DIQMTQSPSSLSASVGDRVTITCSASSSVSYMHWFQQKPGKSPKLLIYSTSNLASGVPSRFSGSGSGTDYTLTISSLQPEDFATYYCQQRSSYPLTFGQGTKLEIKR |
| 0.053 nM | 0.034 nM | Hu147-15wk (antibody, human IgG1, kappa, V domains shown) VH: EVQLVESGGGLVQPGGSLRLSCAASGFTFSTYAMNWVRQAPGKGLEWVGRIRTKSNNYATYYADSVKDRFTISRDDSKNSLYLQMNSLKTEDTAVYYCVETGFAYWDQGTLVTVSS VL: DIQLTQSPSSLSASVGDRVTITCSASSSVSYMHWFQQKPGKSPKLWIYSTSNLASGVPSRFSGSGSGTDYTLTISSLQPEDFATYYCQQRSSYPLTFGQGTKLEIKR |
| 0.144 nM | 0.134 nM | Hu147-34wk (antibody, human IgG1, kappa, V domains shown) VH: EVQLVESGGGLVQPGGSLRLSCAASGFSFNTYAMNWVRQAPGKGLEWVARIRTKSNNYATYYADSVKDRFTISRDDSESSLYLQMNSLKTEDTAVYYCVETGFAYWDQGTLVTVSS VL: DIQMTQSPSSLSASVGDRVTITCSASSSVSYMHWFQQKPGKSPKLLIYSTSNLASGVPSRFSGSGSGTDYTLTISSLQPEDFATYYCQQRSSYPLTFGQGTKLEIKR |
